{"source": "patent US20080131465A1", "about": "“Group a Streptococcus Crge Protein” (priority 2004, published 2008)", "key": {"[1]": {"tested_on": "WT and Δspy1542 mutant strains", "assay": "FACS analysis of LL-37 localised on the bacterial surface", "type": "cell-based, Streptococcus pyogenes", "details": "0.8 μM LL-37; WT versus Δspy1542 mutant; 5 or 10 min at 37° C.", "method": "An experiment was carried out to see if LL-37 bound to the surface of the bacteria. 0.8 μM LL-37 was added to the bacteria in a method similar to that for the bacterial killing assay. The amount of LL-37 localised on the bacterial surface was then compared for WT and Δspy1542 mutant strains by FACS analysis. […] This “protective” effect also increases with time. The WT strains therefore appear to be shielded against LL-37."}, "Streptococcus pneumoniae": {"tested_on": "Streptococcus pneumoniae", "assay": "antimicrobial assay on Streptococcus pneumoniae", "type": "cell-based", "method": "(§1) The mutant was obtained using allelic exchange gene replacement mutagenesis. Positive clones were confirmed by PCR and used for further experiments. Quantitative real time PCR confirmed the absence of crgR mRNA in the mutant. ΔcrgR mutant cathelicidin resistance was tested in a bacterial killing assay. Bacteria were grown in THB to OD600 0.2 and diluted in […] Tris-HCl, pH7.5, containing 5 mM glucose. 1 ml of bacteria (˜10^6 cfu) were incubated together with different concentrations of cathelicidins for 1 hour at 37° C. with no agitation. The bactericidal activity was assessed by plating serial dilutions of the incubation mixtures on THY-blood agar.\nIn order to see if a similar mechanism of action was found in other bacteria encoding heterologous proteins, the antimicrobial assay was carried out as described above, except using Streptococcus pneumoniae. […] The experiment was repeated by adding 70 μg of native Spy1542 in addition to 0.4 μM, 0.8 μM or 1.6 μM of LL-37. In this second experiment, 100% survival at 0.4 μM was noted. Therefore Spy1542 appears to be able to inhibit cathelicidin action also in heterologous systems"}, "GAS strain SF370 WT": {"tested_on": "GAS strain SF370 WT", "type": "cell-based, Streptococcus pyogenes", "details": "1 hour at 37° C., ~10^6 cfu", "method": "as §1"}, "[2]": {"tested_on": "ΔcrgR mutant of GAS strain SF370", "type": "cell-based, Streptococcus pyogenes", "details": "1 hour at 37° C., ~10^6 cfu", "method": "as §1"}, "[3]": {"tested_on": "bacteria challenged with LL-37", "assay": "pre-treatment of bacteria with Spy1542, washing, then LL-37 challenge", "type": "cell-based, Streptococcus pyogenes", "details": "Spy1542 added, bacteria pelleted, washed, resuspended; then 0.4 μM LL-37", "method": "A further experiment was therefore carried out to confirm that the effect of Spy1542 was indirect. Spy1542 was added to the bacteria. The bacteria were then pelleted, washed and resuspended. 0.4 μM LL-37 was then added to the suspension."}, "LL-37": {"target": "T1, LL-37 (Homo sapiens, UniProt P49913)", "T1 construct": "release the mature C-terminal antimicrobial peptide", "T1 sequence (P49913 134-170 limits assumed)": "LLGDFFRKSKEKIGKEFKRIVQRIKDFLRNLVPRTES", "assay": "mass spectrometry of LL-37 in supernatant after Spy1542 treatment", "details": "WT strain, 0.4 μM LL-37, after 30 minutes", "method": "Spy1542 was therefore used to treat the WT strain challenged with 0.4 μM LL-37 in a process similar to the bacterial killing assay described above. After 30 minutes, the bacteria were pelleted and the supernatant was analysed. It was discovered by mass spectrometry that the LL-37 in the supernatant was unmodified by the action of Spy1542 (FIG. 13)."}, "[4]": {"tested_on": "Wild-type, ΔcrgR and ΔcrgR/Δspy1542-43 strains challenged with cathelicidin", "assay": "bacterial killing assay with purified Spy1542 added to the medium", "type": "cell-based, Streptococcus pyogenes", "details": "different concentrations of purified Spy1542", "method": "The involvement of Spy1542 in the resistance mechanism to antimicrobial peptides was investigated further by cloning and expressing Spy1542 as a native protein. The expressed protein was purified by using a Q sepharose column followed by Cu chelating and finally, gel filtration (FIG. 7). The purified protein was successively used to study its effect when added to the medium in bacterial-killing assays.\nWild-type; ΔcrgR and ΔcrgR/Δspy1542-43 strains were challenged with 0.4 μM LL-37 or CRAMP, and added with different concentrations of the purified protein.\nIn addition, Spy1542 protein was also able to enhance in a dose dependent manner the survival rate of the ΔcrgR mutant (FIG. 8a)."}}, "data": [{"molecule": "CC[C@H](C)[C@H](NC(=O)[C@H](CCCCN)NC(=O)[C@H](CCC(=O)O)NC(=O)[C@H](CCCCN)NC(=O)[C@H](CO)NC(=O)[C@H](CCCCN)NC(=O)[C@H](CCCNC(=N)N)NC(=O)[C@H](Cc1ccccc1)NC(=O)[C@H](Cc1ccccc1)NC(=O)[C@H](CC(=O)O)NC(=O)CNC(=O)[C@H](CC(C)C)NC(=O)[C@@H](N)CC(C)C)C(=O)NCC(=O)N[C@@H](CCCCN)C(=O)N[C@@H](CCC(=O)O)C(=O)N[C@@H](Cc1ccccc1)C(=O)N[C@@H](CCCCN)C(=O)N[C@@H](CCCNC(=N)N)C(=O)N[C@H](C(=O)N[C@H](C(=O)N[C@@H](CCC(N)=O)C(=O)N[C@@H](CCCNC(=N)N)C(=O)N[C@H](C(=O)N[C@@H](CCCCN)C(=O)N[C@@H](CC(=O)O)C(=O)N[C@@H](Cc1ccccc1)C(=O)N[C@@H](CC(C)C)C(=O)N[C@@H](CCCNC(=N)N)C(=O)N[C@@H](CC(N)=O)C(=O)N[C@@H](CC(C)C)C(=O)N[C@H](C(=O)N1CCC[C@H]1C(=O)N[C@@H](CCCNC(=N)N)C(=O)N[C@H](C(=O)N[C@@H](CCC(=O)O)C(=O)N[C@@H](CO)C(=O)O)[C@@H](C)O)C(C)C)[C@@H](C)CC)C(C)C)[C@@H](C)CC", "note": "[LL-37]", "values": [{"measurement": "amount of LL-37 localised on the bacterial surface", "setting": "[1]", "result": "WT strain had less LL-31 on the bacterial surface"}, {"measurement": "killing of bacteria", "setting": "Streptococcus pneumoniae; increasing concentrations of LL-37", "result": "shown to kill the bacteria"}, {"measurement": "concentration necessary to kill 50% of bacterial cells (LD50)", "setting": "GAS strain SF370 WT", "result": 0.103, "unit": "µM"}, {"measurement": "concentration necessary to kill 50% of bacterial cells (LD50)", "setting": "[2]", "result": 0.28, "unit": "µM"}]}, {"molecule": "Spy1542: Streptococcus pyogenes protein encoded by crgE (spy1542), cloned, expressed as native protein and purified; confers resistance to cathelicidins (protein, Streptococcus pyogenes, Streptococcus pyogenes protein encoded by crgE (spy1542), cloned, expressed as native protein and purified; confers resistance to cathelicidins) MESYITPKHQEACVAAIKQIVSYPSVCHEGENGTPFGQAIQDILEATLDLCQGLGFHTYIDPEGYYGYAELGDQKEVLAILCHLDVVPEGDRQLWKTDPFDCVEADGCLFGRGTQDDKGPTMMALFATKALIDAGVTFNKRIRFIFGTDEETLWRCMNRYNDVEEQATFGFAPDSSFPLTYAEKGLLQAKLVGKGSDKLSLEIGQAYNVVPARASYQGDKLEALQKELDKLGFEYVVKEGELTVYGLAQHAKDAPDGINAMIRLAKALVVLEPNKTLDFLANVIDEDGRALNIFGRIEDEPSGKLSFNAAGLTLTKDKAEIRLDIRIPVLADKEKLVQQLSQKAQEYGLTYEEFDYLAPLYVPLDSELVTTLLSVYRKKTGDQSPAQSSGGATFARTMKNCVAFGALFPDAVQTEHQENEHIVLADAYRAMDIYAEAIYRLTR", "values": [{"measurement": "protective effect against LL-37 after pre-treatment and washing", "setting": "[3]", "result": "protective effect of Spy1542 was maintained and that it was dose dependent"}, {"measurement": "modification of LL-37 in the supernatant by Spy1542", "setting": "LL-37", "result": "unmodified"}, {"measurement": "survival", "setting": "Streptococcus pneumoniae; 70 μg native Spy1542 added with 0.4 μM LL-37", "result": 100, "unit": "%"}, {"measurement": "inhibition of CRAMP bactericidal activity", "setting": "[4]; 0.4 μM CRAMP", "result": "inhibited cathelicidin bactericidal activity in a dose-dependent fashion"}, {"measurement": "inhibition of LL-37 action (number of colonies, survival rate)", "setting": "[4]; 0.4 μM LL-37", "result": "inhibits LL-37 action in a dose dependent manner"}]}]}
